In patent US20220227873A1 (COUNCIL OF THE QUEENSLAND INSTITUTE OF MEDICAL RESEARCH, published 2022):

Experiments:
[1] = biological target: human GAL9 of the human PBMC cultures (human); assay: cell-based or functional assay
[2] = biological target: Human GAL9 protein (Acro Biosystems, Human Gal9 His-tag Cat #LG9-H5244) (human); assay: Octet BLI, IgG1 immobilised on biosensor, GAL9 analyte dilution series, global fit (monovalent affinity)
[3] = biological target: human GAL9 of the human PBMC cultures (human); assay: cell-based or functional assay; remark: listed apart in the source

Sequence of Human GAL9 protein (Acro Biosystems, Human Gal9 His-tag Cat #LG9-H5244) (human) (chain, as listed by the source): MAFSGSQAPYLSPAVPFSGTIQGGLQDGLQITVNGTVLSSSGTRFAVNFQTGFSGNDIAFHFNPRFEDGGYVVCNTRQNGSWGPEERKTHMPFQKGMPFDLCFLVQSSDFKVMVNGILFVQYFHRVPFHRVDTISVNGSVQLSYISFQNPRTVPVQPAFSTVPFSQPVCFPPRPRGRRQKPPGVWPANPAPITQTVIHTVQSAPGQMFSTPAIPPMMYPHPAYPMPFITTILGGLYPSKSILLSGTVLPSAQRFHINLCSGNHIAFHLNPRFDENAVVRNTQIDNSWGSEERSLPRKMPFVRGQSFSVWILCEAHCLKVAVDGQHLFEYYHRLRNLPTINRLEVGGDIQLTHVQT

| Binder | INF-γ 72 hr, Fold change, Average [1] [fold] | INF-γ 72 hr, Fold change, Donor 19 [1] [fold] | INF-γ 72 hr, Fold change, Donor 25 [1] [fold] | INF-γ 72 hr, Fold change, Donor 27 [1] [fold] | INF-γ 72 hr, Fold change, as % [1] [%] | INF-γ 72 hr, pg/ml, Donor 19 (HCMV-peptide stimulated PBMCs) [1] [pg/mL] | INF-γ 72 hr, pg/ml, Donor 25 (HCMV-peptide stimulated PBMCs) [1] [pg/mL] | INF-γ 72 hr, pg/ml, Donor 27 (HCMV-peptide stimulated PBMCs) [1] [pg/mL] | Kd [2] [nM] | TNF-α 72 hr, Fold change, Average [3] [fold] | TNF-α 72 hr, Fold change, Donor 19 [3] [fold] | TNF-α 72 hr, Fold change, Donor 25 [3] [fold] | TNF-α 72 hr, Fold change, Donor 27 [3] [fold] | TNF-α 72 hr, Fold change, as % [3] [%] | TNF-α 72 hr, pg/ml, Donor 19 (HCMV-peptide stimulated PBMCs) [3] [pg/mL] | TNF-α 72 hr, pg/ml, Donor 25 (HCMV-peptide stimulated PBMCs) [3] [pg/mL] | TNF-α 72 hr, pg/ml, Donor 27 (HCMV-peptide stimulated PBMCs) [3] [pg/mL] |
| --- | --- | --- | --- | --- | --- | --- | --- | --- | --- | --- | --- | --- | --- | --- | --- | --- | --- |
| P9-11 (antibody, IgG1, V domains shown, Tested as bivalent monospecific native human full-length IgG1; also called ABS clone P9-11) VH: EVQLVESGGGLVQPGGSLRLSCAASGFTFSSYYIHWVRQAPGKGLEWVAYISPSGGYTYYADSVKGRFTISADTSKNTAYLQMNSLRAEDTAVYYCARGAVLYSSAMDYWGQGTLVTVSS VL: DIQMTQSPSSLSASVGDRVTITCRASQSVSSAVAWYQQKPGKAPKLLIYSASSLYSGVPSRFSGSRSGTDFTLTISSLQPEDFATYYCQQYYPSPSTFGQGTKVEIKR | 0.68 | 0.99 | 0.52 | 0.53 | 68.2 | 5890 | 23000 | 891 | 6.55 | 0.64 | 0.78 | 0.76 | 0.4 | 64.7 | 607 | 982 | 374 |
| P9-37 (antibody, IgG1, V domains shown, Tested as bivalent monospecific native human full-length IgG1; also called ABS clone P9-37) VH: EVQLVESGGGLVQPGGSLRLSCAASGFTFWKYGIHWVRQAPGKGLEWVAYIYPAGGITSYADSVKGRFTISADTSKNTAYLQMNSLRAEDTAVYYCARSDYYSGMGMDYWGQGTLVTVSS VL: DIQMTQSPSSLSASVGDRVTITCRASQSVSSAVAWYQQKPGKAPKLLIYSASSLYSGVPSRFSGSRSGTDFTLTISSLQPEDFATYYCQQYYPSPSTFGQGTKVEIKR | 0.55 | 0.55 | – | – | 54.6 | 3230 | – | – | 4.54 | 0.55 | 0.55 | – | – | 55.2 | 429 | – | – |
| P9-34 (antibody, IgG1, V domains shown) VH: EVQLVESGGGLVQPGGSLRLSCAASGFTFSTYFIHWVRQAPGKGLEWVAYIYPQGGYTYYADSVKGRFTISADTSKNTAYLQMNSLRAEDTAVYYCARQSYPGVFDYWGQGTLVTVSS VL: DIQMTQSPSSLSASVGDRVTITCRASQSVSSAVAWYQQKPGKAPKLLIYSASSLYSGVPSRFSGSRSGTDFTLTISSLQPEDFATYYCQQWTIALTTFGQGTKVEIKR | 0.88 | – | 1.01 | 0.74 | 87.6 | – | 44400 | 1050 | – | 0.74 | – | 0.68 | 0.79 | 73.7 | – | 874 | 596 |
| P9-24 (antibody, IgG1, V domains shown, Tested as bivalent monospecific native human full-length IgG1; also called ABS clone P9-24) VH: EVQLVESGGGLVQPGGSLRLSCAASGFTFSSYFIHWVRQAPGKGLEWVASIYPTSHSTSYADSVKGRFTISADTSKNTAYLQMNSLRAEDTAVYYCARLGYPGVMDYWGQGTLVTVSS VL: DIQMTQSPSSLSASVGDRVTITCRASQSVSSAVAWYQQKPGKAPKLLIYSASSLYSGVPSRFSGSRSGTDFTLTISSLQPEDFATYYCQQVDSRLATFGQGTKVEIKR | 0.8 | – | 0.82 | 0.78 | 87.6 | – | 35700 | 1260 | 5.41 | 0.54 | – | 0.75 | 0.32 | 53.5 | – | 962 | 299 |
| P9-25 (antibody, IgG1, V domains shown, Tested as bivalent monospecific native human full-length IgG1; also called ABS clone P9-25) VH: EVQLVESGGGLVQPGGSLRLSCAASGFTFSSYYIHWVRQAPGKGLEWVASIYPYGSYTYYADSVKGRFTISADTSKNTAYLQMNSLRAEDTAVYYCARLGYSSGMDYWGQGTLVTVSS VL: DIQMTQSPSSLSASVGDRVTITCRASQSVSSAVAWYQQKPGKAPKLLIYSASSLYSGVPSRFSGSRSGTDFTLTISSLQPEDFATYYCQQWAPDLTTFGQGTKVEIKR | – | – | – | – | – | – | – | – | 3.48 | – | – | – | – | – | – | – | – |
| P9-50 (antibody, IgG1, V domains shown, Tested as bivalent monospecific native human full-length IgG1; Heavy chain copied as printed: it ends 'SLSPG' without the last K; also called ABS clone P9-50) VH: EVQLVESGGGLVQPGGSLRLSCAASGFTFSSYVIHWVRQAPGKGLEWVALIYSSGGYTQYADSVKGRFTISADTSKNTAYLQMNSLRAEDTAVYYCARVGTTYPSRYLEALDYWGQGTLVTVSS VL: DIQMTQSPSSLSASVGDRVTITCRASQSVSSAVAWYQQKPGKAPKLLIYSASSLYSGVPSRFSGSRSGTDFTLTISSLQPEDFATYYCQQFGSSLPTFGQGTKVEIKR | – | – | – | – | – | – | – | – | 1.21 | – | – | – | – | – | – | – | – |
| P9-57 (antibody, IgG1, V domains shown, Tested as bivalent monospecific native human full-length IgG1; also called ABS clone P9-57) VH: EVQLVESGGGLVQPGGSLRLSCAASGFTFSSYYIHWVRQAPGKGLEWVATIYPSGGYTYYADSVKGRFTISADTSKNTAYLQMNSLRAEDTAVYYCARYSYPGVLDYWGQGTLVTVSS VL: DIQMTQSPSSLSASVGDRVTITCRASQSVSSAVAWYQQKPGKAPKLLIYSASSLYSGVPSRFSGSRSGTDFTLTISSLQPEDFATYYCQQSSSFLWTFGQGTKVEIKR | 0.83 | 0.83 | – | – | 83.4 | 4940 | – | – | 2.56 | 0.54 | 0.54 | – | – | 53.7 | 417 | – | – |
